Source: US20100015126A1, “Methods of Binding of Cross-Beta Structures By Chaperones” (priority 2006, published 2010)

What was measured:
BiP-Sepharose = molecular target: T1, BiP-Sepharose (Homo sapiens, UniProt P11021); assay: Experiment 2: BiP-Sepharose extraction from six synovial fluid samples of RA patients and mass spectrometry; type: binding; conditions: BiP-Sepharose eluate, synovial fluid of RA patient
T1 construct: The human BiP gene except the signal peptide encoding region was obtained from Geneart (Germany); linker […]; made in house; host or cells: HEK 293E cells, transient transfection, PABC674 vector; secreted into the medium
Experimental: Six samples were incubated with the BiP-Sepharose, IgIV-Sepharose and the control-Sepharose: Normal pooled plasma, plasma of a patient I or of a patient II, with AL amyloidosis, serum of a patient III with RA (Rheumatoid Factor (RF) titer 682), control serum and synovial fluid of a patient IV with RA (RF titer 23). All samples were diluted 20× in HBS and applied to 200 μl beads in two volumes of 500 μl. One volume was incubated for 4 h at RT and supernatant was discarded after centrifugation (2 minutes at 1400 rpm). Subsequently, the second volume was applied to the same matrix and incubated overnight on a roller device at 4° C. […] To collect the eluates, the matrices were centrifuged and the two eluates were pooled for each sample.
Protein digests were desalted as described (Rappsilber et al., 2003), vacuum dried and dissolved in 2.5% formic acid.
For analysis of peptide mixtures, an Agilent 1100 HPLC system (Agilent Technologies) connected to a Thermo Finnigan LTQ-MS (Thermo Electron, Bremen, Germany) was used. Protein digests were injected on a trap column (Reprosil C18 RP (Dr Maisch, Germany), 20 mm×100 μm I.D.) at 5 μl/minute. Subsequently, the peptides were transferred with a split-reduced flow rate of 100 nL/minute solvent A (0.1 M acetic acid) on the analytical column (Reprosil C18 RP, 20 cm×50 μm I.D.). […] The column effluent was directly introduced into the ESI source of the mass spectrometer via a butt-connected nano-ESI emitter (New Objectives, Woburn, Mass.). The mass spectrometer was operated in the positive ion mode and parent ions were selected for fragmentation in data-dependent mode.
After mass spectrometric measurements, peak lists were generated using BioWorks software (Thermo Electron, Bremen, Germany). Protein identification was performed using Mascot software (www.matrixscience.com) by searching the IPIhuman database (version 3.24, downloaded from ftp://ftp.ebi.ac.uk/pub/databases/IPI/current) using the following settings: fully tryptic peptides, peptide tolerance 0.8 Da, MS/MS tolerance 0.9 Da, 1 missed cleavage allowed, carbamidomethyl (Cys) and oxidation (Met) as fixed and variable modification, respectively. The Scaffold software package (www.proteomesoftware.com) was used to parse the data and to filter peptides at a confidence level of 95%, allowing only protein identification with at least 2 peptides identified.
Those samples are listed below: • 1. […] One difference when compared to the protocol described above is that now with the twelve samples, elution buffer comprised 1 M NaCl. Again, a misfolded protein or a protein binding to misfolded protein is identified uniquely in the synovial fluid when no or a relatively very low number of fragments are detected in eluates of control-Sepharose.

human BiP [1] = molecular target: T2, human BiP (Homo sapiens, UniProt P11021); assay: ELISA: binding of BiP-FLAG-His to immobilized (misfolded) protein ligands; conditions: ligands coated at 5 μg/ml; 6BB peptides and oxLDL 50 μg/ml
T2 construct: The human BiP gene except the signal peptide encoding region was obtained from Geneart (Germany); linker […]; made in house; host or cells: HEK 293E cells, transient transfection, PABC674 vector; secreted into the medium
Experimental: Enzyme Linked Immunosorbent Assay for Testing of Chaperone Binding to Misfolded Proteins
Binding of chaperones to immobilized (misfolded) protein ligands was determined using an enzyme linked immuno sorbent assay (ELISA) approach. For this purpose 50 μl/well of potential ligands at indicated concentrations or coat buffer only for control and background measurement purposes, were coated overnight at 4° C. or coated for 1 h at room temperature, with motion, in 50 mM NaHCO3 pH 9.6 (coat buffer). In general, ligands were coated at 5 μg/ml, unless stated otherwise. For example, BiP binding peptides 6BB# and oxLDL were coated at 50 μg/ml. Native haemoglobin (Sigma-Aldrich, H7379), albumin, IgIV Gammagard and ovalbumin controls were prepared from lyophilized stocks. The controls were prepared by dissolving lyophilized proteins at 1 mg/ml in PBS upon resuspending by pipetting, followed by a 30 minutes period at the roller device, at room temperature. The protein solutions were centrifuged for 10 minutes at 16,000*g and diluted in coat buffer. After coating the plates were washed at least three times with 50 mM Tris-HCl pH 7.3, 150 mM NaCl, 0.1% v/v Tween20, and blocked with Blocking reagent (Roche Diagnostics, Almere, The Netherlands; 11112589001), for 1 h at room temperature, with motion. Plates were washed three times and incubated in triplicate with indicated chaperone dilution series, at 50 μl/well, for 1 h at room temperature, with constant motion. For HSP90, 5 mM DTT is incorporated in the binding buffer (PBS/0.1% Tween20) to avoid unwanted disulfide bond formation of the HSP90. Plates were washed three times and incubated with anti-FLAG antibody (mouse antibody, M2, peroxidase conjugate; Sigma, A-8592) for BiP-FLAG-His, anti-His-tag antibody (Mouse Monoclonal Antibody, Cat. No. 70796, Novagen [0.2 mg/ml]) for HSP60, a 1:1 mix of 500-fold diluted anti-HSP90beta antibodies (Stressgen, SPA-643 [mouse monoclonal IgM], SPA-646 [rabbit polyclonal]) for HSP90 and an anti-DnaK antibody (Stressgen, 023SPA-880D [mouse monoclonal antibody]) for DnaK. After four wash cycles, secondary antibodies were added to the wells when required, 50 μl/well, for 45′ at room temperature, with motion. RAMPO and SWARPO were used at 3000 times dilution. […] In a second experiment with more immobilized misfolded proteins and controls, the detection of bound HSP90 with the mix of two anti-HSP90 antibodies was achieved by mixing 1:1500 SWARPO with 1:3000 RAMPO. After 5 washes with wash buffer followed by two washes with PBS, binding of antibodies was assessed. Bound anti-FLAG-PO, peroxidase-conjugated rabbit anti-mouse immunoglobulins (RAMPO, P0260, DAKOCytomation, Glostrup, Denmark) or peroxidase-coupled swine anti-rabbit immunoglobulins (SWARPO, P0217, DAKOCytomation) was visualized with tetramethylbenzidine (TMB, #45.01.20,/#45.014.01, Biosource, Nivelles, Belgium). The reaction was stopped after 5 minutes with 1% H2SO4 in H2O. Plates were read at 450 nm. Triplicates were averaged and standard deviations calculated. Background signals obtained with buffer-coated wells were subtracted (binding of primary antibody to empty wells), as well as background signals obtained with ligand-coated wells in which the chaperones were omitted (binding of primary and secondary antibody to coated ligands). Subsequently, sub-optimal concentrations of chaperones for binding to misfolded protein ligands are determined, and these concentrations are used for inhibition studies. […] We have previously identified that a sub-fraction of IgIV molecules has affinity for misfolded proteins comprising crossbeta structure (pending patent application). Moreover, we identified that the sub-fraction of IgIV molecules directly binds to crossbeta structure and/or crossbeta structure induced conformation (not shown; pending patent application). […]

human BiP [2] = molecular target: T2, human BiP; assay: Competition ELISA: BiP binding to misfolded proteins under influence of crossbeta binding compounds; conditions: BiP binding without compound set to 100%
Experimental: Binding of chaperones to immobilized (misfolded) protein ligands was determined using an enzyme linked immuno sorbent assay (ELISA) approach. For this purpose 50 μl/well of potential ligands at indicated concentrations or coat buffer only for control and background measurement purposes, were coated overnight at 4° C. or coated for 1 h at room temperature, with motion, in 50 mM NaHCO3 pH 9.6 (coat buffer). In general, ligands were coated at 5 μg/ml, unless stated otherwise. For example, BiP binding peptides 6BB# and oxLDL were coated at 50 μg/ml. Native haemoglobin (Sigma-Aldrich, H7379), albumin, IgIV Gammagard and ovalbumin controls were prepared from lyophilized stocks. The controls were prepared by dissolving lyophilized proteins at 1 mg/ml in PBS upon resuspending by pipetting, followed by a 30 minutes period at the roller device, at room temperature. The protein solutions were centrifuged for 10 minutes at 16,000*g and diluted in coat buffer. After coating the plates were washed at least three times with 50 mM Tris-HCl pH 7.3, 150 mM NaCl, 0.1% v/v Tween20, and blocked with Blocking reagent (Roche Diagnostics, Almere, The Netherlands; 11112589001), for 1 h at room temperature, with motion. Plates were washed three times and incubated in triplicate with indicated chaperone dilution series, at 50 μl/well, for 1 h at room temperature, with constant motion. For HSP90, 5 mM DTT is incorporated in the binding buffer (PBS/0.1% Tween20) to avoid unwanted disulfide bond formation of the HSP90. […] After four wash cycles, secondary antibodies were added to the wells when required, 50 μl/well, for 45′ at room temperature, with motion. RAMPO and SWARPO were used at 3000 times dilution. […] In a second experiment with more immobilized misfolded proteins and controls, the detection of bound HSP90 with the mix of two anti-HSP90 antibodies was achieved by mixing 1:1500 SWARPO with 1:3000 RAMPO. After 5 washes with wash buffer followed by two washes with PBS, binding of antibodies was assessed. Bound anti-FLAG-PO, peroxidase-conjugated rabbit anti-mouse immunoglobulins (RAMPO, P0260, DAKOCytomation, Glostrup, Denmark) or peroxidase-coupled swine anti-rabbit immunoglobulins (SWARPO, P0217, DAKOCytomation) was visualized with tetramethylbenzidine (TMB, #45.01.20,/#45.014.01, Biosource, Nivelles, Belgium). The reaction was stopped after 5 minutes with 1% H2SO4 in H2O. Plates were read at 450 nm. Triplicates were averaged and standard deviations calculated. Background signals obtained with buffer-coated wells were subtracted (binding of primary antibody to empty wells), as well as background signals obtained with ligand-coated wells in which the chaperones were omitted (binding of primary and secondary antibody to coated ligands). Subsequently, sub-optimal concentrations of chaperones for binding to misfolded protein ligands are determined, and these concentrations are used for inhibition studies.
In a subsequent study we analysed whether BiP interacts directly with the crossbeta structure, by performing ELISA binding studies with a fixed sub-optimal concentration of BiP and concentration series of crossbeta binding compounds. The results are depicted in FIGS. 12, 13 and Table 7. Binding of BiP without added crossbeta binding compounds was set to 100%.

T1 sequence (P11021 19-654): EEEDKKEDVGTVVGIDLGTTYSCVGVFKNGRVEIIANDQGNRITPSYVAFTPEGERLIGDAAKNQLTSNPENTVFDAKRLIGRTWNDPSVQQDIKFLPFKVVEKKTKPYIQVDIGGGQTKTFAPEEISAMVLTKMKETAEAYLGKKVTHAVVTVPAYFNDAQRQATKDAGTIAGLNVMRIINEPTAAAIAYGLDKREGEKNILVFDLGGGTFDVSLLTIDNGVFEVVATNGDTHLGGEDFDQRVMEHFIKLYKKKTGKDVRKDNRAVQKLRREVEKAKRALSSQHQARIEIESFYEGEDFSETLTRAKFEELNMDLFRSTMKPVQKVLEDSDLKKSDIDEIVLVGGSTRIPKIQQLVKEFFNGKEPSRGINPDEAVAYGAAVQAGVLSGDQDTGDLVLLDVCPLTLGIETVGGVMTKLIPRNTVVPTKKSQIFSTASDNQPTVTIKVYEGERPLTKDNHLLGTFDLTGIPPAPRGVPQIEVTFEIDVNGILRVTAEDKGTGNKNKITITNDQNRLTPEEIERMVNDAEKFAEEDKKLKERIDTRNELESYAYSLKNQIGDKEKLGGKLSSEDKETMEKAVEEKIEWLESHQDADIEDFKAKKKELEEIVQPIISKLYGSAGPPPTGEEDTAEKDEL
T2 sequence (P11021 19-654): as above

Substance | # of unique peptides (BiP-Sepharose; Sample 1B) | # of unique peptides (BiP-Sepharose; Sample 3B) | also measured
Clusterin precursor | 1 | 1 | # of unique peptides (BiP-Sepharose; Sample 2B): 1
KRLEVDIDIK [FP10, synthetic fibrin peptide without crossbeta structure (negative control)] |  |  | Binding of concentration series of BiP to coated ligand (human BiP [1]): did not bind
187 kDa protein, complement component 3 | 2 |  | # of unique peptides (BiP-Sepharose; Sample 5B): 1
Heat shock 70 kDa protein 1L | 1 | 1 | # of unique peptides (BiP-Sepharose; Sample 2B): 1; # of unique peptides (BiP-Sepharose; Sample 5B): 1; # of unique peptides (BiP-Sepharose; Sample 6B): 1
Single-chain Fv (Fragment), Ig heavy chain V-III region TRO | 2 |  | 
fibronectin 1 isoform 4 preproprotein | 10 |  | # of unique peptides (BiP-Sepharose; Sample 2B): 2; # of unique peptides (BiP-Sepharose; Sample 5B): 2
Isoform 1 of Fibrinogen alpha chain precursor | 3 |  | 
Thioflavin S [ThS] |  |  | Influence on interaction of BiP with misfolded proteins comprising crossbeta structure (summary in words) (human BiP [2]): can either potentiate BiP binding, or inhibit
IGHG4 protein, immunoglobulin heavy constant gamma 4 | 4 |  | # of unique peptides (BiP-Sepharose; Sample 2B): 1
Apolipoprotein A-I precursor | 3 | 8 | 
Vitronectin precursor | 1 |  | # of unique peptides (BiP-Sepharose; Sample 5B): 2; # of unique peptides (BiP-Sepharose; Sample 6B): 1
Haptoglobin precursor | 1 | 3 | 
IGKV1-5 protein, immunoglobulin kappa variable 1-5 | 3 | 5 | 
thrombin |  |  | Binding of concentration series of BiP to coated ligand (human BiP [1]): did not bind
Apolipoprotein A-II precursor | 1 |  | 
Neutrophil defensin 1 precursor |  | 1 | # of unique peptides (BiP-Sepharose; Sample 2B): 1
Apolipoprotein B-100 precursor | 9 | 12 | 
Serotransferrin precursor |  |  | # of unique peptides (BiP-Sepharose; Sample 5B): 1
Ig kappa chain V-IV region Len, immunoglobulin kappa variable 4-1 |  | 1 | 
Aβ1-40: amyloid-β 1-40 peptide coated in Example 7 |  |  | Binding of concentration series of BiP to coated ligand (human BiP [1]): has been established
HSPA5 protein/BiP | 21 | 19 | # of unique peptides (BiP-Sepharose; Sample 2B): 12; # of unique peptides (BiP-Sepharose; Sample 4B): 10; # of unique peptides (BiP-Sepharose; Sample 5B): 10; # of unique peptides (BiP-Sepharose; Sample 6B): 17
